From the supplement of paper PMC10065799, “High-throughput profiling of sequence recognition by tyrosine kinases and SH2 domains using bacterial peptide display” (eLife, 2023)

Columns and labels:
c-Src SH2 = assay: SH2 binding enrichment of the phosphorylated peptide, bacterial display (enrichment ratio); higher = better substrate or ligand; peptides without Tyr show the background
Grb2 SH2 = Grb2 SH2 (UniProt P62993); assay: as above
SHP2-C SH2 = assay: as above
MERTK = MERTK (UniProt Q12866); assay: phosphorylation enrichment, bacterial display (enrichment ratio); higher = better substrate or ligand; peptides without Tyr show the background
EPHB2 = EPHB2 (UniProt P29323); assay: as above
FGFR3 = FGFR3 (UniProt P22607); assay: as above
AncSZ = assay: as above
Fyn = Fyn (UniProt P06241); assay: as above
Hck = Hck (UniProt P08631); assay: as above
Fes = Fes (UniProt P07332); assay: as above
EPHB1 = EPHB1 (UniProt P54762); assay: as above
c-Src = assay: as above
c-Abl (mouse) = assay: as above
Jak2 = Jak2 (UniProt O60674); assay: as above
Fer (mouse) = assay: as above
FGFR1 = FGFR1 (UniProt P11362); assay: as above
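Throughout, for SH2 binding enrichment of the phosphorylated peptide, bacterial display: peptide library displayed on the E. coli surface as eCPX fusions, selected cells deep-sequenced, score is each peptide's frequency after selection divided by its frequency in the input.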
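Throughout, for phosphorylation enrichment, bacterial display: 11-residue human phosphosite peptides and single-mutation variants displayed on the E. coli surface, counted by deep sequencing, each peptide's frequency after selection divided by its frequency in the unselected input library; frequency after pTyr selection over input frequency; kinase dosed for 20-30% of maximal phosphorylation in three min.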

EPHB1, sequence (P54762 whole entry, looked up): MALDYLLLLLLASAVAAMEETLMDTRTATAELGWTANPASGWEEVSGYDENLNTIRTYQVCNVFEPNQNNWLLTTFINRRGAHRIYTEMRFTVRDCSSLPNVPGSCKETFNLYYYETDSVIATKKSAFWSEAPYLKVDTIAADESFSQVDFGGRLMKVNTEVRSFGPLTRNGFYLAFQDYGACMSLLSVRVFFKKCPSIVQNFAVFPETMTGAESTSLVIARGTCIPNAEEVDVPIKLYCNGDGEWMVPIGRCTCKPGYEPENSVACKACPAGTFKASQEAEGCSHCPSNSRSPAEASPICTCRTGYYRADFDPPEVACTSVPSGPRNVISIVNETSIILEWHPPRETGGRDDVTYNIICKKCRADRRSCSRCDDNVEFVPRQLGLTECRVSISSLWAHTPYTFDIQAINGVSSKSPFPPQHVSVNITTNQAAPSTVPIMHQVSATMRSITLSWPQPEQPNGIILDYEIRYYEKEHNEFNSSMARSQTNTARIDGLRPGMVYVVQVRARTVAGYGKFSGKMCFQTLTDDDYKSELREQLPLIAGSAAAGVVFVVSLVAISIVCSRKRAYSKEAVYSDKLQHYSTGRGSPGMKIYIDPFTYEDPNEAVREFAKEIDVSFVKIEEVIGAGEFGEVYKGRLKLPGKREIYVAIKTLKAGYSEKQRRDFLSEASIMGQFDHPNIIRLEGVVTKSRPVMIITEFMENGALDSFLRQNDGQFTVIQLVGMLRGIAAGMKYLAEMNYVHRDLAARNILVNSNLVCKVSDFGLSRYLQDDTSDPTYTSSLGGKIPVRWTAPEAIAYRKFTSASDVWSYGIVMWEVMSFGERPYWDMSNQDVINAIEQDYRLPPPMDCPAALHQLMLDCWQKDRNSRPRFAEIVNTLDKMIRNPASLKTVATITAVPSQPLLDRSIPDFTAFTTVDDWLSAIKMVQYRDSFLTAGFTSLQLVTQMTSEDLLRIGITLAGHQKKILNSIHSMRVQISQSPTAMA
Hck, sequence (P08631 whole entry, looked up): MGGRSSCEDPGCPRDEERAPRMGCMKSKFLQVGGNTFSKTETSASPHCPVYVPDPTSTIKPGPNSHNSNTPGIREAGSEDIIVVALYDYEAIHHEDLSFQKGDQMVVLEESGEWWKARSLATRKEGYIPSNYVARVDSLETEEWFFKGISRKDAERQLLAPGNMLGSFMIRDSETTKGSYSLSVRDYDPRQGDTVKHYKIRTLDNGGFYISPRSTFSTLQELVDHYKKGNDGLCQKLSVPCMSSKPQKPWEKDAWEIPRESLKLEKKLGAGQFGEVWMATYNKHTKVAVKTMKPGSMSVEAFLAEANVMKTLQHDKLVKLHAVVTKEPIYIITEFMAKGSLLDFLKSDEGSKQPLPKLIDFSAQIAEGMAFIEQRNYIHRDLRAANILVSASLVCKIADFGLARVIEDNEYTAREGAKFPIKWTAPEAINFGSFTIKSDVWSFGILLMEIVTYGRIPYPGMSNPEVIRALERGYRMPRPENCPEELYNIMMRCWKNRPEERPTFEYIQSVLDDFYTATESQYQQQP
Fes, sequence (P07332 whole entry, looked up): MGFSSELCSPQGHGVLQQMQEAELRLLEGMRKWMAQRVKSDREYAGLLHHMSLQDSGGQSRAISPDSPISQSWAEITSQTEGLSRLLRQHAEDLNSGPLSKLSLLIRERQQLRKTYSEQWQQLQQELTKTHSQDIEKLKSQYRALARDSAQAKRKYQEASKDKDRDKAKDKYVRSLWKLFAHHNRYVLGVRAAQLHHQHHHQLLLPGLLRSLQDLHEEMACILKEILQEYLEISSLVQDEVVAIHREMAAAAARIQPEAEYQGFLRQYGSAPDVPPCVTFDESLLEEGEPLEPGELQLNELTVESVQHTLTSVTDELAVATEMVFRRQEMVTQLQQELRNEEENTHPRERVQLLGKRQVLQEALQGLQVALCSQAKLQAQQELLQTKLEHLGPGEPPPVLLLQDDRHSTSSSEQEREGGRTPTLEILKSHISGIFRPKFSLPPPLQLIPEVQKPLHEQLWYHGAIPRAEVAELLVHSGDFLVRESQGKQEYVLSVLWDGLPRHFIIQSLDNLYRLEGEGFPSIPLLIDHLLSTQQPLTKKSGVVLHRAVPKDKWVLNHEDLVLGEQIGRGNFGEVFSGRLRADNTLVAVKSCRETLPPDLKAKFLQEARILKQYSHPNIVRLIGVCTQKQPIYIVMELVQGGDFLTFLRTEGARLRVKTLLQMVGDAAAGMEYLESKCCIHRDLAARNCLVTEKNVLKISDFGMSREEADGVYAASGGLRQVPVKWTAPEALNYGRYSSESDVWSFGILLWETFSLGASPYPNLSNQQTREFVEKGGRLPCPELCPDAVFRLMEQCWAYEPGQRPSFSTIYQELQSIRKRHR
FGFR3, sequence (P22607 whole entry, looked up): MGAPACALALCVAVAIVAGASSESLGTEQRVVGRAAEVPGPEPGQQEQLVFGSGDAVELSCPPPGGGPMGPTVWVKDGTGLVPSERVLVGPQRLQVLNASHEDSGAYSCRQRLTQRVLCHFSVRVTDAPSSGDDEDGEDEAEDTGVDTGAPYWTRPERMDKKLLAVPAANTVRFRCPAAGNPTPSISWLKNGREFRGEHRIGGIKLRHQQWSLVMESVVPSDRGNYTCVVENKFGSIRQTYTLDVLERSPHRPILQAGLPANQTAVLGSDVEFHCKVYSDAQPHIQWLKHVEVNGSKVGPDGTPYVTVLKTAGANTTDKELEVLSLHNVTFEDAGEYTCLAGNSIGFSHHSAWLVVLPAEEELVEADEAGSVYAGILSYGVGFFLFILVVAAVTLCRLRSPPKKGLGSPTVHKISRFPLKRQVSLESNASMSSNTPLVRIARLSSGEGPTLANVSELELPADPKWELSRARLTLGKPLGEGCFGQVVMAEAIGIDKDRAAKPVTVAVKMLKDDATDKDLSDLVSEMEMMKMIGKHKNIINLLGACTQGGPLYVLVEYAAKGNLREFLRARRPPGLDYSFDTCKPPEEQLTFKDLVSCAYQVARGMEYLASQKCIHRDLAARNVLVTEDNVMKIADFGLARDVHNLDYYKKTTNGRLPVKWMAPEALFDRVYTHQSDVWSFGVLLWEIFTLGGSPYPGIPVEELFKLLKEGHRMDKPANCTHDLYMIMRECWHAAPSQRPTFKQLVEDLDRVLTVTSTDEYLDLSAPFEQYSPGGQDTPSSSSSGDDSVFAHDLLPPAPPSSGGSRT
Grb2 SH2, sequence (P62993 whole entry, looked up): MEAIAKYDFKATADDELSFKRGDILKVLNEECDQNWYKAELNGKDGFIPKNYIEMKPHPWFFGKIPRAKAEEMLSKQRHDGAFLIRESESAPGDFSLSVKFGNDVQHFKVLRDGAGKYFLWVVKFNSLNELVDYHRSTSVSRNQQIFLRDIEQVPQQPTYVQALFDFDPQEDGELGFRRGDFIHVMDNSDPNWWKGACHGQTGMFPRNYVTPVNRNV
FGFR1, sequence (P11362 whole entry, looked up, the tested form may be a part): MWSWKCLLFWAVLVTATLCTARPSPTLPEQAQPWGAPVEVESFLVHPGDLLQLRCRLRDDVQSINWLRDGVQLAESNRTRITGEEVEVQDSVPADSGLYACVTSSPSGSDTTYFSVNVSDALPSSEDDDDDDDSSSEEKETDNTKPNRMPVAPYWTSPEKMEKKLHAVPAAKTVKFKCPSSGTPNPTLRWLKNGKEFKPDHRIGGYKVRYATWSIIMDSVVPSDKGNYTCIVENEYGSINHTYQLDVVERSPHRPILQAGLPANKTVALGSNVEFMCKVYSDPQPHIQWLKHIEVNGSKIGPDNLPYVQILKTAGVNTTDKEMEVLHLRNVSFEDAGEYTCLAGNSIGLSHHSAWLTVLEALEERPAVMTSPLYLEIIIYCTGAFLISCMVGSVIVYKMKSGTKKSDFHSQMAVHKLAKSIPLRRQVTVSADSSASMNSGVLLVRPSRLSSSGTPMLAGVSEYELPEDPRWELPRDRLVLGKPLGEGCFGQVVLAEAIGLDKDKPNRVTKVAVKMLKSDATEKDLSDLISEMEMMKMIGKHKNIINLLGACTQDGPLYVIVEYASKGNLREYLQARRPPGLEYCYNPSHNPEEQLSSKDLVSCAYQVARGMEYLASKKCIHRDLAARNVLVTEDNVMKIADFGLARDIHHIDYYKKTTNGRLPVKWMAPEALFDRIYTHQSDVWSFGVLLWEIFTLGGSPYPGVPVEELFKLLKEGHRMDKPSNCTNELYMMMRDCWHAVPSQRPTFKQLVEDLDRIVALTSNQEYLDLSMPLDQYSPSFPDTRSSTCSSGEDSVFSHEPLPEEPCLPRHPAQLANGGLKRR
Fyn, sequence (P06241 whole entry, looked up): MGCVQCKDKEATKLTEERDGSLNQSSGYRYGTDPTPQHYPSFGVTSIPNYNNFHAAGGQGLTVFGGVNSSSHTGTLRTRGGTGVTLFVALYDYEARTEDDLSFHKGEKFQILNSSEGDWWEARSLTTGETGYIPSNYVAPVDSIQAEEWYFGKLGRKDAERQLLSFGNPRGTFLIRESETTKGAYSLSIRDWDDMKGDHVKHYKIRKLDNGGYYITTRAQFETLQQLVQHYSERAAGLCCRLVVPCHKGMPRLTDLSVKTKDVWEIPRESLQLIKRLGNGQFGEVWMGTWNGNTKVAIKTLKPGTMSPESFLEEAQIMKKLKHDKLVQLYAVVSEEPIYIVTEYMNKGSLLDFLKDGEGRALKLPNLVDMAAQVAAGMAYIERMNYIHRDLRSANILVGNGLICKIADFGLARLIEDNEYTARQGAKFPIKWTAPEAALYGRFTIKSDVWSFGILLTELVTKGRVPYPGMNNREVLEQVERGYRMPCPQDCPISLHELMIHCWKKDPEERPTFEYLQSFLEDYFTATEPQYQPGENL

| Sequence | SH2 binding enrichment (c-Src SH2) | SH2 binding enrichment (Grb2 SH2) | SH2 binding enrichment (SHP2-C SH2) | phosphorylation enrichment (MERTK) | phosphorylation enrichment (EPHB2) | phosphorylation enrichment (FGFR3) | phosphorylation enrichment (AncSZ) | phosphorylation enrichment (Fyn) | phosphorylation enrichment (Hck) | phosphorylation enrichment (Fes) | phosphorylation enrichment (EPHB1) | phosphorylation enrichment (c-Src) | phosphorylation enrichment (c-Abl (mouse)) | phosphorylation enrichment (Jak2) | phosphorylation enrichment (Fer (mouse)) | phosphorylation enrichment (FGFR1) |
| --- | --- | --- | --- | --- | --- | --- | --- | --- | --- | --- | --- | --- | --- | --- | --- | --- |
| SVEVPYEPPEV [TP53_Y220_V217E] | 0.591 | 0.977 | 0.797 | 0.564 | 0.675 | 0.907 | 1.44 | 0.603 | 0.596 | 1.4 | 0.579 | 0.549 | 1.08 | 1.41 | 0.572 | 0.622 |
| PRRRFYVVACD [RNASE3_Y134_G130R] | 0.47 | 0.592 | 0.486 | 0.73 | 0.701 | 0.656 | 0.597 | 0.759 | 0.705 | 0.667 | 0.543 | 0.545 | 0.715 | 0.733 | 0.433 | 0.614 |
| ATVLNYLPKCI [A2M_Y817] | 0.535 | 0.899 | 0.736 | 0.392 | 0.542 | 0.649 | 0.747 | 0.437 | 0.599 | 0.987 | 0.662 | 0.385 | 0.714 | 0.858 | 0.438 | 0.519 |
| FSAPNYCYRCG [PPP2CA_Y265] | 0.762 | 1.1 | 0.933 | 0.423 | 0.455 | 0.45 | 0.656 | 0.458 | 0.414 | 0.564 | 0.498 | 0.382 | 0.452 | 0.501 | 0.327 | 0.446 |
| TTANRYLKVSD [MYOM2_Y871] | 0.643 | 1.2 | 0.731 | 0.409 | 0.432 | 0.41 | 0.546 | 0.404 | 0.607 | 0.641 | 0.38 | 0.486 | 0.526 | 0.492 | 0.484 | 0.453 |
| RRFLFYFSFLL [PTEN_Y177_V175L_YF] | 0.519 | 0.821 | 0.478 | 0.53 | 0.608 | 0.508 | 0.691 | 0.567 | 0.541 | 0.794 | 0.493 | 0.683 | 0.613 | 0.727 | 0.398 | 0.472 |
| LLRLAYLADIF [ZBED5_Y476] | 1.34 | 1.9 | 1.61 | 0.432 | 0.677 | 0.636 | 0.872 | 0.457 | 0.54 | 1.02 | 0.69 | 0.419 | 0.765 | 0.99 | 0.745 | 0.64 |
| PDKRIYQFTAA [SKAP2_Y197] | 0.645 | 0.82 | 0.57 | 0.999 | 0.553 | 0.497 | 0.73 | 0.566 | 0.578 | 0.708 | 0.779 | 0.729 | 0.47 | 0.651 | 0.769 | 0.476 |
| TPIYPYLLPKS [PLD2_Y580_T577I] | 1.17 | 0.943 | 0.855 | 1.8 | 0.559 | 0.698 | 0.837 | 0.435 | 0.547 | 0.776 | 0.578 | 0.624 | 0.65 | 1.59 | 0.426 | 0.812 |
